# Assay results taken from patent US20190211081A1 (Chugai, published 2019).
# Tests used:
# [1] = target: T1, soluble human FcRn (complex of FcRn and beta2-microglobulin) (human, UniProt P55899 24-290; P61769 21-119); experiment: Biacore 3000, antibody captured, human FcRn as analyte, pH 6.0
# T1 construct: Expressed constructs contain the signal regions (FcRn Met1-Leu290; beta2-microglobulin Met1-Met119); Secreted from HEK293H cells and purified; also called hFcRn
# Method: (§1) The binding to human FcRn was assessed using Biacore 3000. An antibody was bound to Protein L or rabbit anti-human IgG Kappa chain antibody immobilized onto a sensor chip, human FcRn was added as an analyte for interaction with the antibody, and the affinity (KD) was calculated from the amount of bound human FcRn. Specifically, Protein L or rabbit anti-human IgG Kappa chain antibody was immobilized onto sensor chip CM5 (BIACORE) by the amine coupling method using 50 mM Na-phosphate buffer (pH 6.0) containing 150 mM NaCl as the running buffer. […] Human FcRn was then injected and the binding of the human FcRn to antibody was assessed.
# (§2) The obtained sensorgram was used to calculate the amount of hFcRn bound to the antibody immediately before the end of human FcRn injection. The affinity of the antibody for human FcRn was calculated by fitting with the steady state affinity method.
# [2] = target: T1, soluble human FcRn (complex of FcRn and …); experiment: Biacore T100, human FcRn immobilized on CM4 chip, antibody as analyte (divalent avidity), pH 6.0, 25 C, KD from ka and kd
# Method: Then, the present inventors assessed in this Example the binding of IgG to FcRn with divalent avidity by immobilizing human FcRn onto a sensor chip and injecting IgG as an analyte to more closely mimic the in vivo case.
# First, about 2,000 RU of human FcRn was immobilized onto sensor chip CM4 (GE Healthcare) by the amino coupling method. Reagents used in the amino coupling were: ethanol amine (GE Healthcare), 50 mM NaOH solution (GE Healthcare), NHS (GE Healthcare), EDC (GE Healthcare). HBS-EP+ solution (10×HBS-EP+ solution (GE Healthcare) was used after dilution) was used as the mobile phase. Then, antibodies were each injected as an analyte into the sensor chip immobilized with human FcRn for three minutes to observe the binding of FcRn to the antibodies. After this observation, the mobile phase was injected for five minutes to assess the dissociation of each antibody variants from FcRn. All measurements were carried out at 25° C. The mobile phase used was 10 mM Cit (pH 6.0)/150 mM NaCl/0.05% Tween20.
# From the obtained sensorgrams, the association rate constant ka (1/Ms) and dissociation rate constant kd (1/s) were calculated for the three minutes of binding phase using Biacore T100 Evaluation Software (GE Healthcare). The dissociation constant KD (M) was determined based on these values.
# [3] = target: T1, soluble human FcRn (complex of FcRn and …); experiment: Biacore 3000, antibody captured on Protein L or rabbit anti-human kappa antibody, human FcRn as analyte, pH 6.0, steady state affinity
# Method: as §1, §2
# [4] = target: T1, soluble human FcRn (complex of FcRn and …); experiment: Biacore 3000, antibody captured, human FcRn as analyte, pH 6.0, steady state affinity
# Method: as §1
# The affinity was computed using BIAevaluation Software. The obtained sensorgram was used to calculate the amount of hFcRn bound to the antibody immediately before the end of human FcRn injection. The affinity of the antibody for human FcRn was calculated by fitting with the steady state affinity method.
# The resulting antibodies were assessed for their human FcRn-binding activity by the method described above.
Binder,fold increase of binding compared to IL6R H0-IgG1/L0-k0 [1],Kd [2],Kd [3],Kd [4]
"IL6R H0-M58/L0-k0 (antibody, IgG2, L-chain constant region k0; also called M58-k0 (anti-IL-6 receptor antibody)) heavy: QVQLQESGPGLVRPSQTLSLTCTVSGYSITSDHAWSWVRQPPGRGLEWIGYISYSGITTYNPSLKSRVTMLRDTSKNQFSLRLSSVTAADTAVYYCARSLARTTAMDYWGQGSLVTVSSASTKGPSVFPLAPSSKSTSGGTAALGCLVKDYFPEPVTVSWNSGALTSGVHTFPAVLQSSGLYSLSSVVTVPSSNFGTQTYTCNVDHKPSNTKVDKTVERKSCVECPPCPAPPVAGPSVFLFPPKPKDTLMISRTPEVTCVVVDVSQEDPEVQFNWYVDGVEVHNAKTKPREEQFNSTFRVVSVLTVVHQDWLNGKEYKCKVSNKGLPAPIEKTISKTKGQPREPQVYTLPPSQEEMTKNQVSLTCLVKGFYPSDIAVEWESNGQPENNYKTTPPMLDSDGSFFLYSKLTVDKSRWQEGNVFSCSVMHEALHNHYTQKSLSLSP light: not shown",~1.4 times,3.85 nM,1030 nM,1030 nM
"IL6R H0-M66/L0-k0 (antibody, L-chain constant region k0; also called M66-k0) heavy: QVQLQESGPGLVRPSQTLSLTCTVSGYSITSDHAWSWVRQPPGRGLEWIGYISYSGITTYNPSLKSRVTMLRDTSKNQFSLRLSSVTAADTAVYYCARSLARTTAMDYWGQGSLVTVSSASTKGPSVFPLAPSSKSTSGGTAALGCLVKDYFPEPVTVSWNSGALTSGVHTFPAVLQSSGLYSLSSVVTVPSSNFGTQTYTCNVDHKPSNTKVDKTVERKCSVECPPCPAPPVAGPSVFLFPPKPKDTLMISRTPEVTCVVVDVSQEDPEVQFNWYVDGVEVHNAKTKPREEQFNSTFRVVSVLTVVHQDWLNGKEYKCKVSNKGLPAPIEKTISKTKGQPREPQVYTLPPSQEEMTKNQVSLTCLVKGFYPSDIAVEWESNGQPENNYKTTPPMLDSDGSFFLYSKLTVDKSRWQEGNVFSCSVMHEALHNHYTQKSLSLSP light: not shown",,3.54 nM,,
"IL31R H0-M58/L0-k0 (antibody, also called anti-IL-31 receptor antibody, M58-k0) heavy: QVQLVQSGAEVKKPGASVKVSCKASGYTFTGYIMNWVRQAPGQGLEWMGLINPYNGGTSYNQKFKGRVTITADESTSTAYMELSSLRSEDTAVYYCARDGYDDGPYTMDYWGQGTLVTVSSASTKGPSVFPLAPSSKSTSGGTAALGCLVKDYFPEPVTVSWNSGALTSGVHTFPAVLQSSGLYSLSSVVTVPSSNFGTQTYTCNVDHKPSNTKVDKTVERKSCVECPPCPAPPVAGPSVFLFPPKPKDTLMISRTPEVTCVVVDVSQEDPEVQFNWYVDGVEVHNAKTKPREEQFNSTFRVVSVLTVVHQDWLNGKEYKCKVSNKGLPAPIEKTISKTKGQPREPQVYTLPPSQEEMTKNQVSLTCLVKGFYPSDIAVEWESNGQPENNYKTTPPMLDSDGSFFLYSKLTVDKSRWQEGNVFSCSVMHEALHNHYTQKSLSLSP light: DIQMTQSPSSLSASVGDRVTITCRTSENIYSFLAWYQQKPGKAPKLLIYNAKTLAKGVPSRFSGSGSGTDFTLTISSLQPEDFATYYCQHHYESPLTFGGGTKVEIKRTVAAPSVFIFPPSDEQLKSGTASVVCLLNNFYPREAKVQWKVDNALQSGNSQESVTEQDSKDSTYSLSSTLTLSKADYEKHKVYACEVTHQGLSSPVTKSFNRGEC",,,,910 nM

# Now from value to binder:
fold increase of binding compared to IL6R H0-IgG1/L0-k0 [1],Kd [2],Kd [3],Kd [4],Binder
,3.26 nM,,,"IL6R H0-M66/L0-k3 (antibody, also called M66-k3) heavy: QVQLQESGPGLVRPSQTLSLTCTVSGYSITSDHAWSWVRQPPGRGLEWIGYISYSGITTYNPSLKSRVTMLRDTSKNQFSLRLSSVTAADTAVYYCARSLARTTAMDYWGQGSLVTVSSASTKGPSVFPLAPSSKSTSGGTAALGCLVKDYFPEPVTVSWNSGALTSGVHTFPAVLQSSGLYSLSSVVTVPSSNFGTQTYTCNVDHKPSNTKVDKTVERKCSVECPPCPAPPVAGPSVFLFPPKPKDTLMISRTPEVTCVVVDVSQEDPEVQFNWYVDGVEVHNAKTKPREEQFNSTFRVVSVLTVVHQDWLNGKEYKCKVSNKGLPAPIEKTISKTKGQPREPQVYTLPPSQEEMTKNQVSLTCLVKGFYPSDIAVEWESNGQPENNYKTTPPMLDSDGSFFLYSKLTVDKSRWQEGNVFSCSVMHEALHNHYTQKSLSLSP light: not shown"
,,,1070 nM,"IL31R H0-IgG1/L0-k0 (antibody, also called anti-IL-31 receptor antibody, IgG1-k0) heavy: not shown light: DIQMTQSPSSLSASVGDRVTITCRTSENIYSFLAWYQQKPGKAPKLLIYNAKTLAKGVPSRFSGSGSGTDFTLTISSLQPEDFATYYCQHHYESPLTFGGGTKVEIKRTVAAPSVFIFPPSDEQLKSGTASVVCLLNNFYPREAKVQWKVDNALQSGNSQESVTEQDSKDSTYSLSSTLTLSKADYEKHKVYACEVTHQGLSSPVTKSFNRGEC"
